The values below come from US20070218516A1 (UNITED STATES OF AMERICA AS REPRESENTED BY THE SERCRETARY …, published 2007).

For test [1], the target named is T1, botulinum neurotoxin serotype A (BoNT/A) (Clostridium botulinum, UniProt P0DPI0 2-1296). In words: direct ELISA, […], antibody at 1.25 ug/ml. For orientation: An ELISA detects its analyte on a solid surface through an enzyme-linked reagent.
Test [2] concerns the target T2, botulinum neurotoxin serotype B (BoNT/B) (Clostridium botulinum, UniProt P10844 2-1291).
T2 sequence: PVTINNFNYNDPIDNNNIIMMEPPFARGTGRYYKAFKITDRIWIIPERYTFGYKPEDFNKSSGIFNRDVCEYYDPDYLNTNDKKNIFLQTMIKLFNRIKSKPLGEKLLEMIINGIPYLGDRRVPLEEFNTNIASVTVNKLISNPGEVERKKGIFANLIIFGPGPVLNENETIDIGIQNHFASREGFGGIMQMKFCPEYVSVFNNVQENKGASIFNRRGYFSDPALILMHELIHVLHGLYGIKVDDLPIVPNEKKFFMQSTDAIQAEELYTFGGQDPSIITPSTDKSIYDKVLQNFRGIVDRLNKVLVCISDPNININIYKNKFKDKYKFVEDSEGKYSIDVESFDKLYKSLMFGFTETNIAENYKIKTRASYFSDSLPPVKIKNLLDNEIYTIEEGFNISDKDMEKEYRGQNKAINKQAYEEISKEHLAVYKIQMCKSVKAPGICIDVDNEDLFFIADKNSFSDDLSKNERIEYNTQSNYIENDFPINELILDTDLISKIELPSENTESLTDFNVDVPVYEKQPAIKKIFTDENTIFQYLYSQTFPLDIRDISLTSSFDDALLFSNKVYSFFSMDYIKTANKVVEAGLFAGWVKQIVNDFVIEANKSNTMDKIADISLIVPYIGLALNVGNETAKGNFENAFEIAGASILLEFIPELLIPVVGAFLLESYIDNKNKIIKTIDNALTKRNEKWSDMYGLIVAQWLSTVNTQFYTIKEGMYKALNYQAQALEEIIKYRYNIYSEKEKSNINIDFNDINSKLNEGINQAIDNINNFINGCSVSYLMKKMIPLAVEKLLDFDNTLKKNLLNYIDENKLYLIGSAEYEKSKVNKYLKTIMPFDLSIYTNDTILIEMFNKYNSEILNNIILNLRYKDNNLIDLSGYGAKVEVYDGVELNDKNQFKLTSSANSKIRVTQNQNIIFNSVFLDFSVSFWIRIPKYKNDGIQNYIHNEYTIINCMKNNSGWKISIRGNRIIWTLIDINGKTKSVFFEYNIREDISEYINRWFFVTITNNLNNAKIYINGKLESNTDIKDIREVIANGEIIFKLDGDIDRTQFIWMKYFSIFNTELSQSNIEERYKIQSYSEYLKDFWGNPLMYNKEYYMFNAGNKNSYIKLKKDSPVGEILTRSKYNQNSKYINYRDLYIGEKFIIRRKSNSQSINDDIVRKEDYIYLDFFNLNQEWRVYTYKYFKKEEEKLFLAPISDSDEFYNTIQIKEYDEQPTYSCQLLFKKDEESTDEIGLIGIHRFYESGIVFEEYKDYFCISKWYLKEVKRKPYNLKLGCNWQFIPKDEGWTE
In words: direct ELISA, […], antibody at 1.25 ug/ml.

For test [3], the target named is T1, botulinum neurotoxin serotype A (BoNT/A). In words: capture ELISA, antibody coated at 5.0 ug/ml.
The target in test [4] is T2, botulinum neurotoxin serotype B (BoNT/B). In words: capture ELISA, antibody coated at 5.0 ug/ml.
The target of test [5] is T1, botulinum neurotoxin serotype A (BoNT/A). Description: capture ELISA titration, antibody at 5.0 ug/ml.
The target of test [6] is T2, botulinum neurotoxin serotype B (BoNT/B). Description: capture ELISA titration, antibody at 5.0 ug/ml.

T1 sequence (P0DPI0 2-1296 limits assumed): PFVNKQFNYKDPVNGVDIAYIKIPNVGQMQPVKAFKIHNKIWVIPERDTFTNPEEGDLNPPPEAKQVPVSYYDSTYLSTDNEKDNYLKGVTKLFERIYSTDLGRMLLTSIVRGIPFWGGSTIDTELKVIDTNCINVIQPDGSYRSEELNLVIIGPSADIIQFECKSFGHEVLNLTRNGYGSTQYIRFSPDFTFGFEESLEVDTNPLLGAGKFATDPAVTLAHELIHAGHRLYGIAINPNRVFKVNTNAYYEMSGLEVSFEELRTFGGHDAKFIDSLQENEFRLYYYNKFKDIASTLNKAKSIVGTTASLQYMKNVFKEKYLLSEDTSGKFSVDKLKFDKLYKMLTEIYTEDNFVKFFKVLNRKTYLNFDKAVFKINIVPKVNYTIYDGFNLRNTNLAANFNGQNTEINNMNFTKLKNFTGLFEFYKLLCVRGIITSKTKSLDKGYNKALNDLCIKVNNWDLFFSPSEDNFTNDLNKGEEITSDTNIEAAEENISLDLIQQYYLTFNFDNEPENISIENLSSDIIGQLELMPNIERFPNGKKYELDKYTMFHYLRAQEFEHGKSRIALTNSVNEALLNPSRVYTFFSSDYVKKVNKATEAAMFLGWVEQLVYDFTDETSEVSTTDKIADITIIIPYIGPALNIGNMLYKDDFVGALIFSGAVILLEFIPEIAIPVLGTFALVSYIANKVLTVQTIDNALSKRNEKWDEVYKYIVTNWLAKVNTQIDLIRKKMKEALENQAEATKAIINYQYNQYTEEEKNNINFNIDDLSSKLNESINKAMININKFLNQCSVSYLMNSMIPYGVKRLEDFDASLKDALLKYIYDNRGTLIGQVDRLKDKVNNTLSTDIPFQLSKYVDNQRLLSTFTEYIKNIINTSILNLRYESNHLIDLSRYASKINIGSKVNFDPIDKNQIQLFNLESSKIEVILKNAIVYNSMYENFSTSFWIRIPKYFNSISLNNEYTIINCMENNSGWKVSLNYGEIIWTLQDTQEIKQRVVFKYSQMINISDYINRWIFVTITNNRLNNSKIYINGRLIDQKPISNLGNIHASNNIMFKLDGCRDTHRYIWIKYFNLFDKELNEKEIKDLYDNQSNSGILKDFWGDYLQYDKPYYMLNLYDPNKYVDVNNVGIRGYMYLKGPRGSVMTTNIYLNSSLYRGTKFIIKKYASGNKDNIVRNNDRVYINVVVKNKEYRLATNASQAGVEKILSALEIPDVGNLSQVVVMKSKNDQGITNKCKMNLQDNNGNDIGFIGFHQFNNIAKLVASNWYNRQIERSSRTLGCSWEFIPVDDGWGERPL

B1: rHu-BF5-A6 (antibody, V domains shown)
VH: EVQLQQSGAELVKPGASVKLSCTASGFNIKDTFMHWVKQRPEQGLEWIGRIDPANGNTEYDPKFQGKATITADTSSNTVNLQLSSLTSEDTAVYYCASGGELGFPYWGQGTLVTVSA
VL: DIQMTQSPASLSASVGETVTITCRASGNIHNYLAWYQQKQGKSPQLLVYNAKTLADGVPSRFSGSGSGTQYSLKINSLQPEDFGSYYCQHFWSTPWTFGGG
For B1, the detection limit came out at 9.4 ng in test [1], 11.8 ng in test [2], 0.29 ng in test [3] and 0.35 ng in test [4]. In addition, the lowest amount detected worked out at 0.3 ng in test [5] and 0.4 ng in test [6].

B2: rHu-BF5-B1 (antibody, V domains shown)
VH: B1 VH
VL: B1 VL
In the case of B2, the detection limit was determined as 9.4 ng in test [1], 11.8 ng in test [2], 0.29 ng in test [3] and 0.35 ng in test [4]. Moreover, the figures for the lowest amount detected in test [5] and in test [6] were 0.3 ng and 0.4 ng, respectively.
